Assay results as given in PMC7416607.

Columns and labels:
[1] = molecular target: Peste-des-petits-ruminants virus haemagglutinin (H) protein of the Nigeria 75/1 strain, Hv-HA (Peste-des-petits-ruminants virus, strain Nigeria 75/1); assay: co-IP
[2] = molecular target: Peste-des-petits-ruminants virus haemagglutinin (H) protein of the Nigeria 75/1 strain, Hv-HA (Peste-des-petits-ruminants virus, strain Nigeria 75/1); assay: SPR
[3] = molecular target: poliovirus receptor-related 4 (ovis aries Nectin-4), Nectin 4-Myc (ovis aries); assay: co-IP

poliovirus receptor-related 4 (ovis aries Nectin-4), Nectin 4-Myc
calibrated ratio of co-IP (percent of Hv and Nectin 4) [1]: 100% | Kd [2]: 306 nM | koff [2]: 0.000435 s⁻¹ | kon [2]: 1420 M⁻¹ s⁻¹

Peste-des-petits-ruminants virus haemagglutinin (H) protein of the Nigeria 75/1 strain, Hv-HA (natural protein)
calibrated ratio of co-IP (percent of Hv and Nectin 4) [3]: 100%
